From paper PMC5902653 (The Analyst, 2018)
Where two headings read alike, the source gives them in different places. *: point of attachment. FITC = O=C1OC2(c3ccc(O)cc3Oc3cc(O)ccc32)c2ccc(NC(=S)*)cc21; βAla = NCCC(=O)O

How the values were obtained:
Experiment in all cases: cross-linking
[1] = molecular target: heat shock protein 70 (Hsp70), labeled with AlexaFluor488 (UniProt P0DMV8)
[2] = molecular target: T1, KIX domain of mouse CREB-binding protein (mouse, UniProt P45481 586-665)
[3] = molecular target: T1, KIX domain of mouse CREB-binding protein; remark: listed apart in the source

T1 sequence (P45481 586-665): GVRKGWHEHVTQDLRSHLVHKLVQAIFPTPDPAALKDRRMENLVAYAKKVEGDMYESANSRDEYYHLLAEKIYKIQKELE
Sequence of bcl2 association athanogene 3 (Bag3) (O95817 whole entry): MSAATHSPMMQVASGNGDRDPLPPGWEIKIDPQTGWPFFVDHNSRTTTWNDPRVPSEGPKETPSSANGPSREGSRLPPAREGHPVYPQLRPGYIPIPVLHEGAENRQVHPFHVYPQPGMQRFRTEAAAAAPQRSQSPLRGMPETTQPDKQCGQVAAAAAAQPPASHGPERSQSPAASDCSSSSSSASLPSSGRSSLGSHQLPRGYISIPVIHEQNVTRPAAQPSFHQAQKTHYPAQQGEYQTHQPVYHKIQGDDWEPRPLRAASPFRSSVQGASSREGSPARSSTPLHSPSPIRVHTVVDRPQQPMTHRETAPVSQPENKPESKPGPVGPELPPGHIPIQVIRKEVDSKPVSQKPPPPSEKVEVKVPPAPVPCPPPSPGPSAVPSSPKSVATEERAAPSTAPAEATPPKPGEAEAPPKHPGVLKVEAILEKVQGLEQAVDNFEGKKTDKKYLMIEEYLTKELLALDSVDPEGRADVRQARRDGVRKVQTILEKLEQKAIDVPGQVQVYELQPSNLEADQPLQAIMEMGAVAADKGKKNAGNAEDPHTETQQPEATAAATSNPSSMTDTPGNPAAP

| Kd [1] [nM] | Molecule | other results |
| --- | --- | --- |
| 26 | bcl2 association athanogene 3 (Bag3) (from UniProt O95817 1-575) (natural protein) | – |
| 1200 | heat shock protein 70 (Hsp70), labeled with AlexaFluor488 (from UniProt P0DMV8 1-641) (natural protein) | – |
| – | {FITC-βAla}-KEKRIKELELLLMSTENELKGQQALW-NH2 (SMILES CC[C@H](C)[C@H](NC(=O)[C@H](CCCNC(=N)N)NC(=O)[C@H](CCCCN)NC(=O)[C@H](CCC(=O)O)NC(=O)[C@H](CCCCN)NC(=O)CCNC(=S)Nc1ccc2c(c1)C(=O)OC21c2ccc(O)cc2Oc2cc(O)ccc21)C(=O)N[C@@H](CCCCN)C(=O)N[C@@H](CCC(=O)O)C(=O)N[C@@H](CC(C)C)C(=O)N[C@@H](CCC(=O)O)C(=O)N[C@@H](CC(C)C)C(=O)N[C@@H](CC(C)C)C(=O)N[C@@H](CC(C)C)C(=O)N[C@@H](CCSC)C(=O)N[C@@H](CO)C(=O)N[C@H](C(=O)N[C@@H](CCC(=O)O)C(=O)N[C@@H](CC(N)=O)C(=O)N[C@@H](CCC(=O)O)C(=O)N[C@@H](CC(C)C)C(=O)N[C@@H](CCCCN)C(=O)NCC(=O)N[C@@H](CCC(N)=O)C(=O)N[C@@H](CCC(N)=O)C(=O)N[C@@H](C)C(=O)N[C@@H](CC(C)C)C(=O)N[C@@H](Cc1c[nH]c2ccccc12)C(N)=O)[C@@H](C)O) [c-Myb peptide, FITC labeled] | Kd [2]: 3100 ± 500 nM |
| – | {FITC-βAla}-GTDKELSDLLDFSAMFS-NH2 (SMILES CSCC[C@H](NC(=O)[C@H](C)NC(=O)[C@H](CO)NC(=O)[C@H](Cc1ccccc1)NC(=O)[C@H](CC(=O)O)NC(=O)[C@H](CC(C)C)NC(=O)[C@H](CC(C)C)NC(=O)[C@H](CC(=O)O)NC(=O)[C@H](CO)NC(=O)[C@H](CC(C)C)NC(=O)[C@H](CCC(=O)O)NC(=O)[C@H](CCCCN)NC(=O)[C@H](CC(=O)O)NC(=O)[C@@H](NC(=O)CNC(=O)CCNC(=S)Nc1ccc2c(c1)C(=O)OC21c2ccc(O)cc2Oc2cc(O)ccc21)[C@@H](C)O)C(=O)N[C@@H](Cc1ccccc1)C(=O)N[C@@H](CO)C(N)=O) [E2A17 peptide, FITC labeled] | Kd [3]: 1100 ± 200 nM |
